# Measured values published in patent US20230235013A1 (MABSOLVE, published 2023).
# T1: mouse FcRn (Sino Biological Cat. No. CT029-M08H) (mouse, UniProt Q61559 22-297; P01887 21-119)
# T1 construct: Bought protein, captured on an anti-histidine chip
# T1 sequence (looked up): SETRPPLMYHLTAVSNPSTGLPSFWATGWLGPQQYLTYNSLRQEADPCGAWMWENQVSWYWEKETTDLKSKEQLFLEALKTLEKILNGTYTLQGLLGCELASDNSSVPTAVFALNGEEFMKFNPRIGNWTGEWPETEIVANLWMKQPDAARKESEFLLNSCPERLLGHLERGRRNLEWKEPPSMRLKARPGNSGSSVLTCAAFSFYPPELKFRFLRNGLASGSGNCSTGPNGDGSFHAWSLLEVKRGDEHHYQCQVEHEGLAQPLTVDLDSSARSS
# T1 sequence (b2m, looked up): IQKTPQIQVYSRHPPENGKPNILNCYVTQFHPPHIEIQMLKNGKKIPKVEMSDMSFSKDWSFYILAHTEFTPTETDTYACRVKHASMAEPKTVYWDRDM
# Columns and labels:
# [1] = molecular target: T2, human FcRn (R&D Systems Cat. No. 8639-Fc) (human, UniProt P55899 24-297; P61769 21-119); experiment: SPR, FcRn captured; Expt 3
# [2] = molecular target: T3, Human C1q (Sigma Cat. No. 20476), HRP-labelled (human, UniProt P02745 23-245; P02746 28-253; P02747 29-245); experiment: ELISA, antibody coated, HRP-C1q; Expt 3, buffer alone 0.102
# T3 construct: Coupled to horse-radish peroxidase with Lightning-Link kit; also called HRP-labelled C1q
# [3] = molecular target: T2, human FcRn (R&D Systems Cat. No. …); experiment: SPR, FcRn captured; Expt 2
# [4] = molecular target: T3, Human C1q (Sigma Cat. No. 20476), …; experiment: ELISA, antibody coated, HRP-C1q; Expt 1, buffer alone 0.061
# [5] = molecular target: T2, human FcRn (R&D Systems Cat. No. …); experiment: SPR, FcRn captured; Mean
# [6] = molecular target: T2, human FcRn (R&D Systems Cat. No. …); experiment: SPR, FcRn captured; Expt 1
# [7] = molecular target: T1, mouse FcRn (Sino Biological Cat. No. …); experiment: SPR, FcRn captured via anti-His, pH 6.0;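 further: SPR binding signal relative to the reference cell, corrected by subtracting the response of a blank sample of running buffer alone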
# [8] = molecular target: T4, cynomolgus monkey FcRn (Sino Biological Cat. No. CT031-C08H) (cynomolgus monkey, UniProt Q8SPV9 24-297; Q8SPW0 21-119); experiment: SPR, FcRn captured via anti-His, pH 6.0;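 further: SPR binding signal relative to the reference cell, corrected by subtracting the response of a blank sample of running buffer alone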
# T4 construct: Bought protein, captured on an anti-histidine chip; also called cynomolgus FcRn
# [9] = molecular target: T2, human FcRn (R&D Systems Cat. No. …); experiment: SPR, FcRn captured via anti-His, pH 6.0;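 further: SPR binding signal relative to the reference cell, corrected by subtracting the response of a blank sample of running buffer alone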
# [10] = molecular target: T3, Human C1q (Sigma Cat. No. 20476), …; experiment: ELISA, antibody coated, HRP-C1q; Expt 2, buffer alone 0.091
# [11] = molecular target: T5, C-terminus biotinylated human FcRn attached to Streptavidin-SmBiT (FcRn-SAv-SmBiT) (human, UniProt P55899 24-297; P61769 21-119, limits assumed, C-terminus biotinylated (AviTag), attached to Streptavidin-SmBiT); experiment: NanoBiT FcRn competition immunoassay, competitor Tracer-LgBiT human IgG, pH 6.0
# T5 construct: Kit reagent; also called hFcRn-AviTag
# [12] = molecular target: T3, Human C1q (Sigma Cat. No. 20476), …; experiment: ELISA, antibody coated, HRP-C1q; Expt 1, buffer alone 0.053
# [13] = molecular target: T3, Human C1q (Sigma Cat. No. 20476), …; experiment: ELISA, antibody coated, HRP-C1q; Expt 2, buffer alone 0.051
Corrected and normalised response (% of wild-type reference) [1],Mean Absorbance [2],Corrected and normalised response (% of wild-type reference) [3],Mean Absorbance [4],Corrected and normalised response (% of wild-type reference) [5],Corrected and normalised response (% of wild-type reference) [6],Corrected response (RU) [7] [RU],Corrected response (RU) [8] [RU],Corrected response (RU) [9] [RU],Mean Absorbance [10],Mean binding activity (% of wild-type reference) [11],Mean Absorbance [12],Mean Absorbance [13],Binder
95.8 % of wild-type reference,0.095 absorbance (450 nm),95.7 % of wild-type reference,0.041 absorbance (450 nm),96 % of wild-type reference,96.5 % of wild-type reference,146,1260,539,0.1 absorbance (450 nm),,,,"anti-CD20 (rituximab) human IgG1 L234A/L235S/G236R (antibody, EU numbering; also called 2-4; 1-14; copies: 2 + 2) heavy: not shown light: QIVLSQSPAILSASPGEKVTMTCRASSSVSYIHWFQQKPGSSPKPWIYATSNLASGVPVRFSGSGSGTSYSLTISRVEAEDAATYYCQQWTSNPPTFGGGTKLEIKRTVAAPSVFIFPPSDEQLKSGTASVVCLLNNFYPREAKVQWKVDNALQSGNSQESVTEQDSKDSTYSLSSTLTLSKADYEKHKVYACEVTHQGLSSPVTKSFNRGEC"
,,,0.072 absorbance (450 nm),,,,,,0.09 absorbance (450 nm),94.1 % of wild-type reference,,,"anti-CD20 (rituximab) human IgG1 L234S/L235V/G236R (antibody, EU numbering; also called 2-53; copies: 2 + 2) heavy: QVQLQQPGAELVKPGASVKMSCKASGYTFTSYNMHWVKQTPGRGLEWIGAIYPGNGDTSYNQKFKGKATLTADKSSSTAYMQLSSLTSEDSAVYYCARSTYYGGDWYFNVWGAGTTVTVSSASTKGPSVFPLAPSSKSTSGGTAALGCLVKDYFPEPVTVSWNSGALTSGVHTFPAVLQSSGLYSLSSVVTVPSSSLGTQTYICNVNHKPSNTKVDKKVEPKSCDKTHTCPPCPAPESVRGPSVFLFPPKPKDTLMISRTPEVTCVVVDVSHEDPEVKFNWYVDGVEVHNAKTKPREEQYNSTYRVVSVLTVLHQDWLNGKEYKCKVSNKALPAPIEKTISKAKGQPREPQVYTLPPSRDELTKNQVSLTCLVKGFYPSDIAVEWESNGQPENNYKTTPPVLDSDGSFFLYSKLTVDKSRWQQGNVFSCSVMHEALHNHYTQKSLSLSPGK light: QIVLSQSPAILSASPGEKVTMTCRASSSVSYIHWFQQKPGSSPKPWIYATSNLASGVPVRFSGSGSGTSYSLTISRVEAEDAATYYCQQWTSNPPTFGGGTKLEIKRTVAAPSVFIFPPSDEQLKSGTASVVCLLNNFYPREAKVQWKVDNALQSGNSQESVTEQDSKDSTYSLSSTLTLSKADYEKHKVYACEVTHQGLSSPVTKSFNRGEC"
,0.119 absorbance (450 nm),,0.037 absorbance (450 nm),,,,,,0.067 absorbance (450 nm),,,,"anti-CD20 (rituximab) human IgG1 L234T/L235S/G236R (antibody, EU numbering; also called 2-62; copies: 2 + 2) heavy: QVQLQQPGAELVKPGASVKMSCKASGYTFTSYNMHWVKQTPGRGLEWIGAIYPGNGDTSYNQKFKGKATLTADKSSSTAYMQLSSLTSEDSAVYYCARSTYYGGDWYFNVWGAGTTVTVSSASTKGPSVFPLAPSSKSTSGGTAALGCLVKDYFPEPVTVSWNSGALTSGVHTFPAVLQSSGLYSLSSVVTVPSSSLGTQTYICNVNHKPSNTKVDKKVEPKSCDKTHTCPPCPAPETSRGPSVFLFPPKPKDTLMISRTPEVTCVVVDVSHEDPEVKFNWYVDGVEVHNAKTKPREEQYNSTYRVVSVLTVLHQDWLNGKEYKCKVSNKALPAPIEKTISKAKGQPREPQVYTLPPSRDELTKNQVSLTCLVKGFYPSDIAVEWESNGQPENNYKTTPPVLDSDGSFFLYSKLTVDKSRWQQGNVFSCSVMHEALHNHYTQKSLSLSPGK light: QIVLSQSPAILSASPGEKVTMTCRASSSVSYIHWFQQKPGSSPKPWIYATSNLASGVPVRFSGSGSGTSYSLTISRVEAEDAATYYCQQWTSNPPTFGGGTKLEIKRTVAAPSVFIFPPSDEQLKSGTASVVCLLNNFYPREAKVQWKVDNALQSGNSQESVTEQDSKDSTYSLSSTLTLSKADYEKHKVYACEVTHQGLSSPVTKSFNRGEC"
94.3 % of wild-type reference,,96.1 % of wild-type reference,0.049 absorbance (450 nm),95 % of wild-type reference,94.6 % of wild-type reference,,,,0.077 absorbance (450 nm),84.7 % of wild-type reference,,,"anti-CD20 (rituximab) human IgG1 L234T/L235Q/G236R (antibody, EU numbering; also called 2-60; copies: 2 + 2) heavy: QVQLQQPGAELVKPGASVKMSCKASGYTFTSYNMHWVKQTPGRGLEWIGAIYPGNGDTSYNQKFKGKATLTADKSSSTAYMQLSSLTSEDSAVYYCARSTYYGGDWYFNVWGAGTTVTVSSASTKGPSVFPLAPSSKSTSGGTAALGCLVKDYFPEPVTVSWNSGALTSGVHTFPAVLQSSGLYSLSSVVTVPSSSLGTQTYICNVNHKPSNTKVDKKVEPKSCDKTHTCPPCPAPETQRGPSVFLFPPKPKDTLMISRTPEVTCVVVDVSHEDPEVKFNWYVDGVEVHNAKTKPREEQYNSTYRVVSVLTVLHQDWLNGKEYKCKVSNKALPAPIEKTISKAKGQPREPQVYTLPPSRDELTKNQVSLTCLVKGFYPSDIAVEWESNGQPENNYKTTPPVLDSDGSFFLYSKLTVDKSRWQQGNVFSCSVMHEALHNHYTQKSLSLSPGK light: QIVLSQSPAILSASPGEKVTMTCRASSSVSYIHWFQQKPGSSPKPWIYATSNLASGVPVRFSGSGSGTSYSLTISRVEAEDAATYYCQQWTSNPPTFGGGTKLEIKRTVAAPSVFIFPPSDEQLKSGTASVVCLLNNFYPREAKVQWKVDNALQSGNSQESVTEQDSKDSTYSLSSTLTLSKADYEKHKVYACEVTHQGLSSPVTKSFNRGEC"
100 % of wild-type reference,0.087 absorbance (450 nm),101 % of wild-type reference,,100 % of wild-type reference,100 % of wild-type reference,,,,0.074 absorbance (450 nm),,,,"anti-CD20 (rituximab) human IgG1 L234S/L235G/G236R (antibody, EU numbering; also called 2-47; 1-140; copies: 2 + 2) heavy: QVQLQQPGAELVKPGASVKMSCKASGYTFTSYNMHWVKQTPGRGLEWIGAIYPGNGDTSYNQKFKGKATLTADKSSSTAYMQLSSLTSEDSAVYYCARSTYYGGDWYFNVWGAGTTVTVSSASTKGPSVFPLAPSSKSTSGGTAALGCLVKDYFPEPVTVSWNSGALTSGVHTFPAVLQSSGLYSLSSVVTVPSSSLGTQTYICNVNHKPSNTKVDKKVEPKSCDKTHTCPPCPAPESGRGPSVFLFPPKPKDTLMISRTPEVTCVVVDVSHEDPEVKFNWYVDGVEVHNAKTKPREEQYNSTYRVVSVLTVLHQDWLNGKEYKCKVSNKALPAPIEKTISKAKGQPREPQVYTLPPSRDELTKNQVSLTCLVKGFYPSDIAVEWESNGQPENNYKTTPPVLDSDGSFFLYSKLTVDKSRWQQGNVFSCSVMHEALHNHYTQKSLSLSPGK light: QIVLSQSPAILSASPGEKVTMTCRASSSVSYIHWFQQKPGSSPKPWIYATSNLASGVPVRFSGSGSGTSYSLTISRVEAEDAATYYCQQWTSNPPTFGGGTKLEIKRTVAAPSVFIFPPSDEQLKSGTASVVCLLNNFYPREAKVQWKVDNALQSGNSQESVTEQDSKDSTYSLSSTLTLSKADYEKHKVYACEVTHQGLSSPVTKSFNRGEC"
,,,,,,,,,,147 % of wild-type reference,0.051 absorbance (450 nm),0.048 absorbance (450 nm),"anti-CD20 (rituximab variable regions) rabbit IgG L234Q/L235S/G236R (antibody, also called 23.77) heavy: QVQLQQPGAELVKPGASVKMSCKASGYTFTSYNMHWVKQTPGRGLEWIGAIYPGNGDTSYNQKFKGKATLTADKSSSTAYMQLSSLTSEDSAVYYCARSTYYGGDWYFNVWGAGTTVTVSSGQPKAPSVFPLAPCCGDTPSSTVTLGCLVKGYLPEPVTVTWNSGTLTNGVRTFPSVRQSSGLYSLSSVVSVTSSSQPVTCNVAHPATNTKVDKTVAPSTCSKPTCPPPEQSRGPSVFIFPPKPKDTLMISRTPEVTCVVVDVSEDDPEVQFTWYINNEQVRTARPPLREQQFNSTIRVVSTLPIAHEDWLRGKEFKCKVHNKALPAPIEKTISKARGQPLEPKVYTMGPPREELSSRSVSLTCMINGFYPSDISVEWEKNGKAEDNYKTTPAVLDSDGSYFLYSKLSVPTSEWQRGDVFTCSVMHEALHNHYTQKSISRSPGK light: QIVLSQSPAILSASPGEKVTMTCRASSSVSYIHWFQQKPGSSPKPWIYATSNLASGVPVRFSGSGSGTSYSLTISRVEAEDAATYYCQQWTSNPPTFGGGTKLEIKRDPVAPSVLLFPPSKEELTTGTATIVCVANKFYPSDITVTWKVDGTTQQSGIENSKTPQSPEDNTYSLSSTLSLTSAQYNSHSVYTCEVVQGSASPIVQSFNRGDC"
